Test results published in PMC8020655.

Target: His6-PopA_(R357G) labelled with Atto-488 (Caulobacter crescentus)
Assay: MST

Kd: 5.1 µM
Substance: His6-SmrF (from UniProt A0A0H3C860 1-122) (natural protein)
